The results in this text go back to PMC7242495.

In the series the test system is T1, CadR (Pseudomonas aeruginosa), ORF:ef015ded.
T1 sequence: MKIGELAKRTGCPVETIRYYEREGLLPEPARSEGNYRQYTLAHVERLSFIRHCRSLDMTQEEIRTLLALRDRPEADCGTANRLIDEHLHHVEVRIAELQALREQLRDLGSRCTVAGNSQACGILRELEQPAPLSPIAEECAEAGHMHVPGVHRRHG
Kind of series: EMSA. The following applies: EMSA: 10 mM Tris pH 8.0, 40 mM KCl, 10 mM MgCl2, 1 mM DTT, 5% glycerol, 250 nM CadR, 25 ng DNA, +/- Zn or EDTA, 30 min room temperature, gel at 4 C ….

Regarding “GCTTCCGGTCAGCAGCAACGCCCATTTCAGGCGGGTCGAGTTGGTCTGGGCGAAGCTGTGCTCGTGTCCGGCGCTCATGGCGGCTCCTGTGGGGCGGTGGCGGCAGCACCAGCCTACAGGATAGGCAATTGCAAAACTGTCATGCGCCGGGCCGCTCTGGCGCGGCGTCCGCCGCTCCGCTAACCTGCGGCTCAGGCGCGGCCGCAGCCGCGCACGGAACGAGGGGGACGCATGACTCAACAGCACGA (double strand) [pczcD]”, the binding result is recorded as “no binding”.

Regarding “CCATGATCATGTCCGTGACCGTGACCGTGACAGCAAGTGTCGGCGTGTTCGTGGCTCATGGAAACAATTCCCGTTTGACGTGTTGGGTGCGATTGCACACCCTGTAGCAACTACAGAGTCAAGCGGTACTGCCAATTCGGGTAGCCGCGTCGGCGATTGGAGGAGGGTTGGCATGAAGATCGGTGAGCTGGCGAAGAGAACCGGTT (double strand) [pcadA WT promoter (EMSA)]”, the binding result is given as “binds”.
